These results are taken from paper PMC8408140 (2021).

B1: TFEB-EGFP [not stated] / Flag-TNKS1 [not stated] (parent complex)
chain 1: MASRIGLRMQLMREQAQQEEQRERMQQQAVMHYMQQQQQQQQQQLGGPPTPAINTPVHFQSPPPVPGEVLKVQSYLENPTSYHLQQSQHQKVREYLSETYGNKFAAHISPAQGSPKPPPAASPGVRAGHVLSSSAGNSAPNSPMAMLHIGSNPERELDDVIDNIMRLDDVLGYINPEMQMPNTLPLSSSHLNVYSSDPQVTASLVGVTSSSCPADLTQKRELTDAESRALAKERQKKDNHNLIERRRRFNINDRIKELGMLIPKANDLDVRWNKGTILKASVDYIRRMQKDLQKSRELENHSRRLEMTNKQLWLRIQELEMQARVHGLPTTSPSGMNMAELAQQVVKQELPSEEGPGEALMLGAEVPDPEPLPALPPQAPLPLPTQPPSPFHHLDFSHSLSFGGREDEGPPGYPEPLAPGHGSPFPSLSKKDLDLMLLDDSLLPLASDPLLSTMSPEASKASSRRSSFSMEEGDVL
chain 2: MAASRRSQHHHHHHQQQLQPAPGASAPPPPPPPPLSPGLAPGTTPASPTASGLAPFASPRHGLALPEGDGSRDPPDRPRSPDPVDGTSCCSTTSTICTVAAAPVVPAVSTSSAAGVAPNPAGSGSNNSPSSSSSPTSSSSSSPSSPGSSLAESPEAAGVSSTAPLGPGAAGPGTGVPAVSGALRELLEACRNGDVSRVKRLVDAANVNAKDMAGRKSSPLHFAAGFGRKDVVEHLLQMGANVHARDDGGLIPLHNACSFGHAEVVSLLLCQGADPNARDNWNYTPLHEAAIKGKIDVCIVLLQHGADPNIRNTDGKSALDLADPSAKAVLTGEYKKDELLEAARSGNEEKLMALLTPLNVNCHASDGRKSTPLHLAAGYNRVRIVQLLLQHGADVHAKDKGGLVPLHNACSYGHYEVTELLLKHGACVNAMDLWQFTPLHEAASKNRVEVCSLLLSHGADPTLVNCHGKSAVDMAPTPELRERLTYEFKGHSLLQAAREADLAKVKKTLALEIINFKQPQSHETALHCAVASLHPKRKQVTELLLRKGANVNEKNKDFMTPLHVAAERAHNDVMEVLHKHGAKMNALDTLGQTALHRAALAGHLQTCRLLLSYGSDPSIISLQGFTAAQMGNEAVQQILSESTPIRTSDVDYRLLEASKAGDLETVKQLCSSQNVNCRDLEGRHSTPLHFAAGYNRVSVVEYLLHHGADVHAKDKGGLVPLHNACSYGHYEVAELLVRHGASVNVADLWKFTPLHEAAAKGKYEICKLLLKHGADPTKKNRDGNTPLDLVKEGDTDIQDLLRGDAALLDAAKKGCLARVQKLCTPENINCRDTQGRNSTPLHLAAGYNNLEVAEYLLEHGADVNAQDKGGLIPLHNAASYGHVDIAALLIKYNTCVNATDKWAFTPLHEAAQKGRTQLCALLLAHGADPTMKNQEGQTPLDLATADDIRALLIDAMPPEALPTCFKPQATVVSASLISPASTPSCLSAASSIDNLTGPLAELAVGGASNAGDGAAGTERKEGEVAGLDMNISQFLKSLGLEHLRDIFETEQITLDVLADMGHEELKEIGINAYGHRHKLIKGVERLLGGQQGTNPYLTFHCVNQGTILLDLAPEDKEYQSVEEEMQSTIREHRDGGNAGGIFNRYNVIRIQKVVNKKLRERFCHRQKEVSEENHNHHNERMLFHGSPFINAIIHKGFDERHAYIGGMFGAGIYFAENSSKSNQYVYGIGGGTGCPTHKDRSCYICHRQMLFCRVTLGKSFLQFSTMKMAHAPPGHHSVIGRPSVNGLAYAEYVIYRGEQAYPEYLITYQIMKPEAPSQTATAAEQKT

Variants of B1 are the subject of the assay. Briefly: co-immunoprecipitation (anti-GFP IP, immunoblot quantification); HEK293T cells; three independent immunoblots; parent: 1; read off a plot.
For the variant chain 1 V65D, chain 1 G67V, chain 1 E68A, the ratio to parent was about 0.4.
